Biological target: human IL-18 binding protein (human) (UniProt O95998)
Test: IGEN electrochemiluminescence immunoassay of the IL-18:IL-18BP complex; 125 ng/ml of each

Chain of native human IL-18 (SEQ ID NO:1) (Q14116 37-193): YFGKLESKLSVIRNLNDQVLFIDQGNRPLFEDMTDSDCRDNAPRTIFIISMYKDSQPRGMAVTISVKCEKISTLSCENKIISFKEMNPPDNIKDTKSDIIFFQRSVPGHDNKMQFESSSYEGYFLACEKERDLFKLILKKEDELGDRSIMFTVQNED

| ECL units | Substance |
| --- | --- |
| 154000 ECL units | C144 20K PEG (human IL-18 L144C substitution mutant pegylated at C144 with 20K PEG, Table 7) (ligand) |
| 561000 ECL units | C144 non-PEG (human IL-18 substitution mutant with L144C, Table 7) (ligand) |
| 63500 ECL units | C157 20K PEG (human IL-18 D157C substitution mutant pegylated at C157 with 20K PEG, Table 7) (ligand) |
| 377000 ECL units | C157 non-PEG (human IL-18 substitution mutant with D157C, Table 7) (ligand) |
| 746000 ECL units | human IL-18 C38S (SEQ ID NO:4) (from UniProt Q14116 37-193) (ligand) |
| 49100 ECL units | human IL-18 C38S (SEQ ID NO:4) monopegylated at C68 with 20K PEG (from UniProt Q14116 37-193) (ligand) |

Biological target: human IL-18 binding protein (human) (UniProt O95998)
Test: SPR (BIAcore)

| Kd | Substance |
| --- | --- |
| 0.134 nM | human IL-18 C38S, C68D, D157C (SEQ ID NO:8) (from UniProt Q14116 37-192) (ligand) |
| 5.53 nM | human IL-18 C38S, C68D, D157C (SEQ ID NO:8) monopegylated at C157 with 20K PEG (from UniProt Q14116 37-192) (ligand) |
| 4.91 nM | human IL-18 C38S, C68D, D157C (SEQ ID NO:8) monopegylated at C157 with 30K PEG (from UniProt Q14116 37-192) (ligand) |
| 23.6 nM | human IL-18 C38S, C68D, D157C (SEQ ID NO:8) monopegylated at C157 with 40K PEG (from UniProt Q14116 37-192) (ligand) |
| 0.101 nM | human IL-18 C38S, C68D, L144C (SEQ ID NO:7) (from UniProt Q14116 37-193) (ligand) |
| 1.16 nM | human IL-18 C38S, C68D, L144C (SEQ ID NO:7) monopegylated at C144 with 20K PEG (from UniProt Q14116 37-193) (ligand) |
| 1.51 nM | human IL-18 C38S, C68D, L144C (SEQ ID NO:7) monopegylated at C144 with 30K PEG (from UniProt Q14116 37-193) (ligand) |
| 4.71 nM | human IL-18 C38S, C68D, L144C (SEQ ID NO:7) monopegylated at C144 with 40K PEG (from UniProt Q14116 37-193) (ligand) |
| 0.163 nM | human IL-18 C38S, C68S, D157C (SEQ ID NO:10) (from UniProt Q14116 37-192) (ligand) |
| 1.27 nM | human IL-18 C38S, C68S, D157C (SEQ ID NO:10) monopegylated at C157 with 20K PEG (from UniProt Q14116 37-192) (ligand) |
| 1.29 nM | human IL-18 C38S, C68S, D157C (SEQ ID NO:10) monopegylated at C157 with 30K PEG (from UniProt Q14116 37-192) (ligand) |
| 0.156 nM | human IL-18 C38S, C68S, L144C (SEQ ID NO:9) (from UniProt Q14116 37-193) (ligand) |
| 1.56 nM | human IL-18 C38S, C68S, L144C (SEQ ID NO:9) monopegylated at C144 with 20K PEG (from UniProt Q14116 37-193) (ligand) |
| 1.51 nM | human IL-18 C38S, C68S, L144C (SEQ ID NO:9) monopegylated at C144 with 30K PEG (from UniProt Q14116 37-193) (ligand) |
| 0.135 nM | native human IL-18 (SEQ ID NO:1) (from UniProt Q14116 37-193) (ligand) |

Biological target: human IL-18 binding protein (human) (UniProt O95998)
Test: IGEN electrochemiluminescence immunoassay of the IL-18:IL-18BP complex (ruthenium 16D10 anti-IL-18 mAb, biotinylated mAb 36 anti-IL-18BP); 125 ng/ml of each

| ECL units | Substance |
| --- | --- |
| 1.1e+06 ECL units | native human IL-18 (SEQ ID NO:1) (from UniProt Q14116 37-193) (ligand) |

From patent US20050008615A1
